The target in this experiment is T1, human IL-23R endogenously expressed on DB cells (CRL-2289) (human, UniProt Q5VWK5 24-629).
T1 sequence (looked up): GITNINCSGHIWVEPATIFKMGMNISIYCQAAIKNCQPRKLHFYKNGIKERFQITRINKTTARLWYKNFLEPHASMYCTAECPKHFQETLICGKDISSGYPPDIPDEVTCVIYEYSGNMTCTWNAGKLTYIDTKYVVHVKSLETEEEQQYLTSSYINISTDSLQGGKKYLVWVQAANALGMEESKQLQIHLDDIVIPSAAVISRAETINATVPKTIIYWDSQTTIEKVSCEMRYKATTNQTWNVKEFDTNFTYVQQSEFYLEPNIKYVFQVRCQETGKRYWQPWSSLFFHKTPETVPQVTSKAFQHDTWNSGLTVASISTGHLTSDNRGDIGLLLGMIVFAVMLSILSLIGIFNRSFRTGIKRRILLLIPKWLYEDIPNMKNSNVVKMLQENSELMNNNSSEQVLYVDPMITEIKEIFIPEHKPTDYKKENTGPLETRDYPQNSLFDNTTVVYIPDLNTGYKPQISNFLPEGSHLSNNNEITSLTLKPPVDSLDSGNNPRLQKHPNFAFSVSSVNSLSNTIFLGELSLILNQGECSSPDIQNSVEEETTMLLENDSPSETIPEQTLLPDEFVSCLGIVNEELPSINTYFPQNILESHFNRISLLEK
In words: cell-based or functional assay.

*1 amine or outer side, *2 acyl side, *3 side chain or, on linkers, in order; H or OH if unused. Bridges are numbered along the chain shown (N, C = ends). Primed or numbered codes have the meaning given here. Where no end group is shown, it is not given here. [ ]: non-standard residue; d: D form. 4‑Aminomethyl‑phenylacetyl = 4-aminomethyl-phenylacetyl unit, its amine closes the lactam, O=C(Cc1ccc(CN[*:1])cc1)[*:2]; 1,3‑dibromopropan‑2‑one = linker (CAS 816-39-7) joining two Cys as 1,3-dithio-propan-2-one bridge -SCH2C(=O)CH2S-; Q(pyrrolidin)″ = (2S)-2-amino-5-oxo-5-pyrrolidin-1-yl-pentanoic acid, O=C(CC[C@H](N[*:1])C(=O)[*:2])N1CCCC1; 1,3‑dibromopropan‑2‑one(3) = linker giving 1,3-dithio-propan-2-one bridge -SCH2C(=O)CH2S- between Cys; 4‑Aminomethyl‑phenylacetyl″ = N-terminal cap residue, O=C(Cc1ccc(CN[*:1])cc1)[*:2]; Ala(quinolin-3-yl) = N[C@@H](Cc1cnc2ccccc2c1)C(=O)O; Phe(3,4-Me2) = Cc1ccc(C[C@H](N)C(=O)O)cc1C; 2Nal = N[C@@H](Cc1ccc2ccccc2c1)C(=O)O; AEF = NCCOc1ccc(C[C@H](N)C(=O)O)cc1; 3Pal = N[C@@H](Cc1cccnc1)C(=O)O; d3Pal = N[C@H](Cc1cccnc1)C(=O)O; αMeL = CC(C)C[C@](C)(N)C(=O)O; αMeV = CC(C)[C@](C)(N)C(=O)O; 3Amb = NCc1cccc(C(=O)O)c1; Dab = NCC[C@H](N)C(=O)O

With Ac-DESCWQCWWKR-NH2 (lactam 2-10; linker 4-7 via 1,3‑dibromopropan‑2‑one) [Ref 7], the “IC50 (pSTAT3)” value is above 1 µM.

Take Ac-DESCWCWWLKR-NH2 (lactam 2-10; linker 4-6 via 1,3‑dibromopropan‑2‑one) [Ref 6]: the “IC50 (pSTAT3)” value is above 1 µM.

B1: Compound 149 (peptide)
peptide: [3Amb]SCWQC[AEF][2Nal][αMeL]ER[Ala(quinolin-3-yl)]-NH2
modifications: lactam (positions not given here); linker 3-6 via 1,3‑dibromopropan‑2‑one(3); not fully specified (bridges); printed as [(3-Aminomethyl)benzoyl](1c)*SC(2a)WQC(2a)][Y(2-aminoethoxy)][2-Nal][2-Me-Leu]E(1c)R[3-(3-Quinolinyl)-Ala]-[NH2]
In the case of B1, the “IC50 (pSTAT3)” value was determined as 4.82 nM.

B2: Compound 150 (peptide)
peptide: [3Amb]SCWQC[AEF][2Nal][αMeL]ER[d3Pal]-NH2
modifications: lactam (positions not given here); linker 3-6 via 1,3‑dibromopropan‑2‑one(3); not fully specified (bridges); printed as [(3-Aminomethyl)benzoyl](1c)*SC(2a)WQC(2a)][Y(2-aminoethoxy)][2-Nal][2-Me-Leu]E(1c)R[{d}[3-(3-Pyridyl)-Ala]]-[NH2]
B2: the “IC50 (pSTAT3)” value came out at 14.3 nM.

B3: Compound 9 (peptide)
peptide: DESCWQCWWLXR
HELM: PEPTIDE1{D.E.S.C.W.Q.C.W.W.L.[Dab].R.[am]}|CHEM1{[O=C(C[*:1])C[*:2]]}$PEPTIDE1,PEPTIDE1,2:R3-11:R3|PEPTIDE1,CHEM1,4:R3-1:R1|PEPTIDE1,CHEM1,7:R3-1:R2$$$V2.0
SMILES: CC(C)C[C@@H]1NC(=O)[C@H](Cc2c[nH]c3ccccc23)NC(=O)[C@H](Cc2c[nH]c3ccccc23)NC(=O)[C@@H]2CSCC(=O)CSC[C@H](NC(=O)[C@H](CO)NC(=O)[C@@H](NC(=O)[C@@H](N)CC(=O)O)CCC(=O)NCC[C@@H](C(=O)N[C@@H](CCCNC(=N)N)C(N)=O)NC1=O)C(=O)N[C@@H](Cc1c[nH]c3ccccc13)C(=O)N[C@@H](CCC(N)=O)C(=O)N2
As to B3, the “IC50 (pSTAT3)” value was above 1 µM.

With [3Amb]IEWQ[Dab][AEF][2Nal][αMeV]E[Dab][3Pal]-NH2 (lactam (positions not given here); lactam 3-6; not fully specified (bridges)) [Compound 156], the “IC50 (pSTAT3)” value was found to be 0.0857 nM.

B4: Ref 4 (peptide)
peptide: DESMWQMWWLKR
HELM: PEPTIDE1{[ac].D.E.S.M.W.Q.M.W.W.L.K.R.[am]}$PEPTIDE1,PEPTIDE1,3:R3-12:R3$$$V2.0
SMILES: CSCC[C@@H]1NC(=O)[C@H](CO)NC(=O)[C@@H](NC(=O)[C@H](CC(=O)O)NC(C)=O)CCC(=O)NCCCC[C@@H](C(=O)N[C@@H](CCCNC(=N)N)C(N)=O)NC(=O)[C@H](CC(C)C)NC(=O)[C@H](Cc2c[nH]c3ccccc23)NC(=O)[C@H](Cc2c[nH]c3ccccc23)NC(=O)[C@H](CCSC)NC(=O)[C@H](CCC(N)=O)NC(=O)[C@H](Cc2c[nH]c3ccccc23)NC1=O
As for B4, the “IC50 (pSTAT3)” value is above 1 µM.

B5: Compound 151 (peptide)
peptide: [3Amb]SCWQC[AEF][2Nal][αMeL]ER[3‑Amino‑3‑(3'-pyridyl)propionyl]-NH2
modifications: lactam (positions not given here); linker 3-6 via 1,3‑dibromopropan‑2‑one(3); not fully specified (bridges); printed as [(3-Aminomethyl)benzoyl](1c)*SC(2a)WQC(2a)][Y(2-aminoethoxy)][2-Nal][2-Me-Leu]E(1c)R[3-Amino-3-(3′-pyridyl)propionyl]-[NH2]
On to B5, for which the “IC50 (pSTAT3)” value turned out to be 10.7 nM.

B6: Ref 3 (peptide)
peptide: DESTWQYWWLKR
HELM: PEPTIDE1{D.E.S.T.W.Q.Y.W.W.L.K.R.[am]}$PEPTIDE1,PEPTIDE1,2:R3-11:R3$$$V2.0
SMILES: CC(C)C[C@@H]1NC(=O)[C@H](Cc2c[nH]c3ccccc23)NC(=O)[C@H](Cc2c[nH]c3ccccc23)NC(=O)[C@H](Cc2ccc(O)cc2)NC(=O)[C@H](CCC(N)=O)NC(=O)[C@H](Cc2c[nH]c3ccccc23)NC(=O)[C@H]([C@@H](C)O)NC(=O)[C@H](CO)NC(=O)[C@@H](NC(=O)[C@@H](N)CC(=O)O)CCC(=O)NCCCC[C@@H](C(=O)N[C@@H](CCCNC(=N)N)C(N)=O)NC1=O
As to B6, the “IC50 (pSTAT3)” value was above 1 µM.

B7: Compound 158 (peptide)
peptide: [4‑Aminomethyl‑phenylacetyl]IEWQ[Dab][AEF][Phe(3,4-Me2)][αMeV]EG[3Pal]-NH2
modifications: lactam (positions not given here); lactam 3-6; not fully specified (bridges); printed as [4-Aminomethyl-phenylacetyl](1c)*IE(2c)WQ[Dab](2c)[Y(2-aminoethoxy)][F(3,4-Me)][2-Me-Val]E(1c)G[3-(3-Pyridyl)-Ala]-[NH2]
Consider B7, for which the “IC50 (pSTAT3)” value was found to be 0.635 nM.

B8: Compound 148 (peptide)
peptide: [3Amb]SCWQC[AEF][2Nal][αMeL]E[Dab][3Pal]-NH2
modifications: lactam (positions not given here); linker 3-6 via 1,3‑dibromopropan‑2‑one(3); not fully specified (bridges); printed as [(3-Aminomethyl)benzoyl](1c)*SC(2a)WQC(2a)[Y(2-aminoethoxy)][2-Nal][2-Me-Leu]E(1c)[Dab][3-(3-Pyridyl)-Ala]-[NH2]
On to B8, for which the “IC50 (pSTAT3)” value was 0.0868 nM.

As to [4‑Aminomethyl‑phenylacetyl″]SCWQC[AEF][2Nal][αMeL]ER[3Pal]-NH2 (lactam N-10; linker 3-6 via 1,3‑dibromopropan‑2‑one(3)) [Compound 147], the “IC50 (pSTAT3)” value turned out to be 0.0858 nM.

B9: Compound 145 (peptide)
peptide: [4‑Aminomethyl‑phenylacetyl][Q(pyrrolidin)″]EWQ[Dab][AEF][2Nal][αMeL]E[Dab]-NH2
modifications: lactam N-10, 3-6
SMILES: CC(C)C[C@]1(C)NC(=O)[C@H](Cc2ccc3ccccc3c2)NC(=O)[C@H](Cc2ccc(OCCN)cc2)NC(=O)[C@@H]2CCNC(=O)CC[C@H](NC(=O)[C@H](CCC(=O)N3CCCC3)NC(=O)Cc3ccc(cc3)CNC(=O)CC[C@@H](C(=O)N[C@@H](CCN)C(N)=O)NC1=O)C(=O)N[C@@H](Cc1c[nH]c3ccccc13)C(=O)N[C@@H](CCC(N)=O)C(=O)N2
B9: the “IC50 (pSTAT3)” value is 22.7 nM.

B10: Ref 2 (peptide)
peptide: DESSWQSWWLKR
HELM: PEPTIDE1{D.E.S.S.W.Q.S.W.W.L.K.R.[am]}$PEPTIDE1,PEPTIDE1,2:R3-11:R3$$$V2.0
SMILES: CC(C)C[C@@H]1NC(=O)[C@H](Cc2c[nH]c3ccccc23)NC(=O)[C@H](Cc2c[nH]c3ccccc23)NC(=O)[C@H](CO)NC(=O)[C@H](CCC(N)=O)NC(=O)[C@H](Cc2c[nH]c3ccccc23)NC(=O)[C@H](CO)NC(=O)[C@H](CO)NC(=O)[C@@H](NC(=O)[C@@H](N)CC(=O)O)CCC(=O)NCCCC[C@@H](C(=O)N[C@@H](CCCNC(=N)N)C(N)=O)NC1=O
In the case of B10, the “IC50 (pSTAT3)” value was above 1 µM.

B11: Compound 146 (peptide)
peptide: [4‑Aminomethyl‑phenylacetyl]SEW[Q(pyrrolidin)″][Dab][AEF][2Nal][αMeL]E[Dab]-NH2
modifications: lactam N-10, 3-6
SMILES: CC(C)C[C@]1(C)NC(=O)[C@H](Cc2ccc3ccccc3c2)NC(=O)[C@H](Cc2ccc(OCCN)cc2)NC(=O)[C@@H]2CCNC(=O)CC[C@H](NC(=O)[C@H](CO)NC(=O)Cc3ccc(cc3)CNC(=O)CC[C@@H](C(=O)N[C@@H](CCN)C(N)=O)NC1=O)C(=O)N[C@@H](Cc1c[nH]c3ccccc13)C(=O)N[C@@H](CCC(=O)N1CCCC1)C(=O)N2
In the case of B11, the “IC50 (pSTAT3)” value amounted to 41.5 nM.

B12: Compound 157 (peptide)
peptide: [4‑Aminomethyl‑phenylacetyl]IEWQ[Dab][AEF][2Nal][αMeV]E[Dab][3Pal]-NH2
modifications: lactam (positions not given here); lactam 3-6; not fully specified (bridges); printed as [4-Aminomethyl-phenylacetyl](1c)*IE(2c)WQ[Dab](2c)[Y(2-aminoethoxy)][2-Nal][2-Me-Val]E(1c)[Dab][3-(3-Pyridyl)-Ala]-[NH2]
As for B12, the “IC50 (pSTAT3)” value was 0.0318 nM.

For Ac-DECWQCWWLKR-NH2 (lactam 2-10; linker 3-6 via 1,3‑dibromopropan‑2‑one) [Ref 5], the “IC50 (pSTAT3)” value is above 1 µM.
